target: COX4I1; test: AP-MS (FLAG affinity purification, protein intensity); conditions: HEK293T transiently overexpressing FLAG-tagged COX5A; n = 3 biological replicates, mean ± SD; parent: est. 1.1e10; read off a plot

Substance | response
COX5A-FLAG, wild type (from UniProt P20674) D81W | 2.5e+10 intensity
COX5A-FLAG, wild type (from UniProt P20674) T79G | 6e+09 intensity
COX5A-FLAG, wild type (from UniProt P20674) Y80W | 5e+09 intensity
